Biological target: T1, GDF5 homodimer (human) (UniProt P43026)
T1 sequence: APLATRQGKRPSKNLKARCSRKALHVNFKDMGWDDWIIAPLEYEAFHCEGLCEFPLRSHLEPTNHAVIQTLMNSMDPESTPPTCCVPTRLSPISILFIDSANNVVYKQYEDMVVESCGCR

Sequence of Noggin (Q13253 28-232): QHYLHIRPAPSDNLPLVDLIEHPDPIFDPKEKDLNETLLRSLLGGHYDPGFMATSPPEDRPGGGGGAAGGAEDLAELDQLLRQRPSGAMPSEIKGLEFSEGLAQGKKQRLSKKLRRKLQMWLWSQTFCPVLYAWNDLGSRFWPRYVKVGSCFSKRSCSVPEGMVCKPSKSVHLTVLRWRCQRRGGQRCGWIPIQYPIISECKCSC

| Substance | IC50 of inhibition of signalling by 5 nM GDF5, luciferase reporter in BRITER osteoblast cells [nM] |
| --- | --- |
| Gremlin-2 (from UniProt O88273 22-168) (natural protein) | 38 |
| Noggin (from UniProt Q13253 28-232) (natural protein) | 42 |

Source: PMC9893541
